Reference: patent US20060165707A1

Key:
[1] = molecular target: … / HLA-A2 / wild-type β2m on T2 cells (human)
[2] = molecular target: … / HLA-A2 / β2m K58→E on T2 cells (human)

Substance: HLA-A2 restricted parvovirus B19 specific CTL line (cells without a defined receptor)
- specific lysis (51Cr release), E:T 22:1, 4 hours [1]: 7.3%
- specific lysis (51Cr release), E:T 22:1, 4 hours [2]: 2.6%
